Publication doi:10.1101/2020.08.17.254268

Biological target: CeOSM-3 kinesin-2 motor, SNAP-tagged and labelled (CeOSM-3^SNAP647) (C. elegans) (UniProt P46873)
UniProt P46873, sequence (P46873 whole entry): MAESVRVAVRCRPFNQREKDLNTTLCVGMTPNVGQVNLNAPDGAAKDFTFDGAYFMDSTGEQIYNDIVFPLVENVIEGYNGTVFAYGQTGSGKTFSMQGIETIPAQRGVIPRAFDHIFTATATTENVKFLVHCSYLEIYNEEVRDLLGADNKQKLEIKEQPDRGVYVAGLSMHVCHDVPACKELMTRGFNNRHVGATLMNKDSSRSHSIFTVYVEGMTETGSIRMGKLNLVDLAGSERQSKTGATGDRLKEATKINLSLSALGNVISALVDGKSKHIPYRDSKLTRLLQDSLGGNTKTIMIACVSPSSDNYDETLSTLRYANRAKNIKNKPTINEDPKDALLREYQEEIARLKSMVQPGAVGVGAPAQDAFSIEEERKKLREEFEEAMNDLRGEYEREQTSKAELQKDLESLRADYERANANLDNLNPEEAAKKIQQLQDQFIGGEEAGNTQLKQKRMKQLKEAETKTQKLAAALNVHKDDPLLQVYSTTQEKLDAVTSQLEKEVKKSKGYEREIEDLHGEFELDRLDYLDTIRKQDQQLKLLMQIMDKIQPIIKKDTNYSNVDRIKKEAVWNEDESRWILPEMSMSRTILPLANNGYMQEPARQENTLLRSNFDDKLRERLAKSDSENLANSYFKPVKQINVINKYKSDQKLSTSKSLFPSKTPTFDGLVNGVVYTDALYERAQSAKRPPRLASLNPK

- runlength of CeOSM-3 with MmIFT-52/IFT-70 in the single-molecule transport assay: 3 μm
- velocity of CeOSM-3 with MmIFT-52/IFT-70 in the single-molecule transport assay: 1.72 μm/s
Substance: MmIFT-52^GFP/IFT-70^SNAP647 adaptor (from UniProt Q62559 1-426; Q99J38 1-664) (complex)
